Measurements published in publication PMC11388081, “Targeted degradation of VEGF with bispecific aptamer-based LYTACs ameliorates pathological retinal angiogenesis”.

Target: VEGF (HZ-1038, Proteintech) (UniProt P15692-4 27-191)
Test: MST; strongest of V4-V6; Kd only in figure; 20 mM CaCl2; MST: 5 nM Cy5-LYTAC, 20 mM Tris-HCl pH 8.5, 20 mM KCl, 20 mM CaCl2, 0.1% Tween 20, 10 min, temperature not stated; pulldown: cell lysate with LYTAC in DPBS-Mg
Conditions: protein: commercial; chain copies: 2; biotin implied in pulldown; 23-bp linker duplex formed by both 5' ends, 3' single-stranded aptamer tails

Sequence of VEGF (HZ-1038, Proteintech) (P15692 other isoform, or with tags, fused parts or gaps): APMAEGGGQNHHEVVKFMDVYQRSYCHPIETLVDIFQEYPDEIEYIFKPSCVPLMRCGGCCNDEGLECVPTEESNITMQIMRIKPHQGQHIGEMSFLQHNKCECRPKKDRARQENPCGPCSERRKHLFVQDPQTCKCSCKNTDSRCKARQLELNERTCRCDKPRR

B1: V5 (M6PR-A / VEGF-A2 LYTAC) (mixed)
DNA 1: CCCCCACACGTAAATCAGTCATAGGGCGCGTAGATGACGAGCAGTCCTAACATCGTTTAGGAC
DNA 2: TATGACTGATTTACGTGTGGGGGTGTGGGGGTGGACGGGCCGGGTAGA
modifications: 5'-phosphate on strand 1 (T4 DNA ligase step stated)
  binding result: binds
